Results reported in paper PMC7362310 (Molecular cell, 2020).

B1: FLAG-tagged EN1 purified from bacteria (natural protein, UniProt Q05925 1-392, looked up)
chain: MEEQQPEPKSQRDSALGAAAAATPGGLSLSLSPGASGSSGSGSDGDSVPVSPQPAPPSPPAAPCLPPLAHHPHLPPHPPPPPPQHLAAPAHQPQPAAQLHRTTNFFIDNILRPDFGCKKEQPPPQLLVAAAARGGAGGGGRVERDRGQTAAGRDPVHPLGTRAPGAASLLCAPDANCGPPDGSQPAAAGAGASKAGNPAAAAAAAAAAVAAAAAAAAAKPSDTGGGGSGGGAGSPGAQGTKYPEHGNPAILLMGSANGGPVVKTDSQQPLVWPAWVYCTRYSDRPSSGPRTRKLKKKKNEKEDKRPRTAFTAEQLQRLKAEFQANRYITEQRRQTLAQELSLNESQIKIWFQNKRAKIKKATGIKNGLALHLMAQGLYNHSTTTVQDKDESE
B2: FLAG-tagged EN2 purified from bacteria (natural protein, UniProt P19622 1-333, looked up)
chain: MEENDPKPGEAAAAVEGQRQPESSPGGGSGGGGGSSPGEADTGRRRALMLPAVLQAPGNHQHPHRITNFFIDNILRPEFGRRKDAGTCCAGAGGGRGGGAGGEGGASGAEGGGGAGGSEQLLGSGSREPRQNPPCAPGAGGPLPAAGSDSPGDGEGGSKTLSLHGGAKKGGDPGGPLDGSLKARGLGGGDLSVSSDSDSSQAGANLGAQPMLWPAWVYCTRYSDRPSSGPRSRKPKKKNPNKEDKRPRTAFTAEQLQRLKAEFQTNRYLTEQRRQSLAQELSLNESQIKIWFQNKRAKIKKATGNKNTLAVHLMAQGLYNHSTTAKEGKSDSE

Key:
[1] = target: FLAG-tagged BRD4-L purified from insect Sf9 cells (human, UniProt O60885-1 1-1362); test: pull-down
[2] = target: FLAG-tagged BRD4-S(a) purified from insect Sf9 cells (human, UniProt O60885-2 1-722); test: pull-down

Row | binding result [1] | binding result [2] | Binder
1 | binds | binds | B1
2 | binds | binds | B2
